{"source": "patent US20180044385A1", "target": "Fab with lambda light chain (Cλ)", "assay": "ELISA; reference is the Fab with kappa light chain", "data": [{"substance": "wild-type Protein-G (C2 domain / Fab binding domain)", "values": [{"measurement": "EC50 ratio, Cλ Fab over CK Fab", "value": 7, "unit": "fold"}]}]}
